Experimental findings from patent US5874218, “Method for detecting a target compound in a substance using a nucleic acid ligand” (NeXstar Pharmaceuticals, Inc.) are described below.

Series [1] addresses hTSH (thyroid stimulating hormone) (Homo sapiens, UniProt P01215;P01222 P01215:25-116,P01222:21-132). In words: dot blot on nitrocellulose, 50-800 nM hTSH, TEM buffer with 0.1% hSA, 0.5 M urea wash. The settings on record: tags: Becton Dickinson, Mr 27,700, 9 IU/mg; label: internally radiolabeled. How it is done: hTSH was suspended in TEM buffer (300 ml) containing 0.1% hSA (w/v) and applied to pre-wetted nitrocellulose filters (0.45 micron; BioRad) under suction. Gel-purified, internally labeled nucleic acid ligand T-15 (SEQ ID NO: 3) was then applied to the blots in 50 ml of TEM buffer (0.2 pmoles/ml) and filtered gently. Filters were immediately washed three times with 300 ml of 0.5M urea in the same buffer. The blots were dried and analyzed with a phosphorimager and by autoradiography.
The results wherein different concentrations of hTSH (from 800 nM (177 mIU/ml) to 50 nM (11 mIU/ml)) blotted on a nitrocellulose membrane were detected by radiolabeled nucleic acid ligand T-15 are shown in FIG. 4. Very low levels of background binding of RNA to nitrocellulose filters in the absence of hTSH (but with hSA in the buffer) was accomplished by washing blots with 0.5M urea in the binding buffer. This step eliminated most nonspecific binding, yet leaving specific binding of ligand T-15 to hTSH largely unaffected. […] However, with the affinity-selected radiolabeled ligand T-15, the radioactive signal on the blot correlated with the concentration of hTSH used. There is a linear relationship between the radioactive signal and the amount of hTSH up to 100 mIU/ml; the signal saturates above this concentration.

In series [2] the target is hCG (chorionic gonadotropin) (Homo sapiens, UniProt P01215;P0DN86 P01215:25-116,P0DN86:21-165). In words: dot blot of hCG in urine; detectable at 1.9 nM, saturates above 500 nM; higher signal in low salt buffer with 2 mM MgCl2. Particulars: label: radiolabeled. As to the method: Test urine (obtained from pregnant individuals) and control urine (obtained from males) samples were pre-filtered through 0.2 mm polysulfone filters (Gelman Sciences) to remove particulate matter. hCG suspended in control urine to various concentrations (300 ml) was blotted onto pre-wetted nitrocellulose filters (from BioRad) under vacuum. Radiolabeled nucleic acid ligand to hCG, H-42 RNA (SEQ ID NO: 4)(100 ml of 1 pmole/ml) was then added to blots and filtered. Blots were immediately washed two times with 300 ml of TEM buffer. The blots were dried and analyzed by autoradiography and phosphorimager (Fuji).
hCG (chorionic gonadotropin), sequence (P01215 25-116, chain 1 of 2, other chains not shown): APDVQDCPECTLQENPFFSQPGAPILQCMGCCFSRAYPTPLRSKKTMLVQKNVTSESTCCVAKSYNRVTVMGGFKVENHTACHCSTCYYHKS
In preliminary studies, anti-hCG antibodies were first applied to nitrocellulose blots to capture hCG and subsequently the radiolabeled RNA was used to detect the hormone. Such anti-hCG antibodies were required only if hCG was suspended in a buffer. However, if hCG in urine was used there was no significant difference in the signal in the presence and absence of antibodies. This may be due to the presence of other proteins in urine that serve as nonspecific carriers, effectively retaining hCG on the membrane. […] The signal saturates at high hCG concentration (>500 nM). Even at 1.9 nM hCG concentration, signal above background level was detected. Compared to control male urine (blots 1–3), the urine from a pregnant […] […]

hTSH (thyroid stimulating hormone), sequence (P01215 25-116, chain 1 of 2): as the sequence (P01215 25-116, chain 1 of 2, other chains not shown) above
hTSH (thyroid stimulating hormone), sequence (P01222 21-132, chain 2 of 2): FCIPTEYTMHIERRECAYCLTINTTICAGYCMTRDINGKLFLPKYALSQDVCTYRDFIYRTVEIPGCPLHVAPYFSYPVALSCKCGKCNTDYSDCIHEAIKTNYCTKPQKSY

B1: T-15 (ssRNA)
RNA: GGGAGGACGAUGCGGAUGUUGGCAGCAGGGUCCGACGGCGUAACCUUGCCAGCUGCAGACGACUCGCCCGA
modifications: 2'-NH2 on all C and U
Take B1: in series [1], the binding result is “binds”.

B2: H-42 (ssRNA)
RNA: GGGAGGACGAUGCGGACAAGGGCCUGAGUGUGGAGGGCACGUGGAGGGGACUGGCCAGACGACUCGCCCGA
modifications: 2'-NH2 pyrimidines (library chemistry)
As to B2, the binding result in series [2] is reported as “binds”.
